Experiments:
[1] = biological target: HIV-1 Pr55^Gag (untagged full length wild type Gag polyprotein) (HIV-1); test: SEC
[2] = biological target: HIV-1 Pr55^Gag (untagged full length wild type Gag polyprotein) (HIV-1); test: SEC-MALS
[3] = biological target: HIV-1 Pr55^Gag with a TEV-cleavable C-terminal hexahistidine tag, uncleaved (HIV-1); test: SEC
[4] = biological target: HIV-1 Pr55^Gag with a non-cleavable C-terminal hexahistidine tag (HIV-1); test: SEC
[5] = biological target: HIV-1 Pr55^Gag-ENLYFQ (Pr55^Gag-TEV-His after removal of the tag with TEV protease) (HIV-1); test: SEC

HIV-1 Pr55^Gag (untagged full length wild type Gag polyprotein) (natural protein)
stoichiometry N [1]: 2 | stoichiometry N [2]: 2

HIV-1 Pr55^Gag with a TEV-cleavable C-terminal hexahistidine tag, uncleaved (natural protein)
stoichiometry N [3]: 2

HIV-1 Pr55^Gag with a non-cleavable C-terminal hexahistidine tag (natural protein)
stoichiometry N [4]: 2

HIV-1 Pr55^Gag-ENLYFQ (Pr55^Gag-TEV-His after removal of the tag with TEV protease) (natural protein)
stoichiometry N [5]: 2
